Reference: patent US20110033875A1 (UNIVERSITY OF GEORGIA RESEARCH FOUNDATION, published 2011)

How the values were obtained:
[1] = target: glycoproteins from mouse endometrioid ovarian tumors nonadherent to Con A; assay: lectin blot of Con A-unbound mouse tissue glycoproteins with biotinylated E-PHA, densitometry (FIG. 11A lanes 3 and 4)
[2] = target: proteins of human ductal invasive breast carcinoma tissue (cases 10406, 10119, 11827, 2417, 2207); assay: L-PHA binding to breast tumor tissue proteins, case 2207; scale not defined
[3] = target: proteins of human ductal invasive breast carcinoma tissue (cases 10406, 10119, 11827, 2417, 2207); assay: L-PHA binding to breast tumor tissue proteins, case 2417; scale not defined
[4] = target: proteins of human ductal invasive breast carcinoma tissue (cases 10406, 10119, 11827, 2417, 2207); assay: L-PHA binding to breast tumor tissue proteins, case 10119; scale not defined
[5] = target: proteins of human ductal invasive breast carcinoma tissue (cases 10406, 10119, 11827, 2417, 2207); assay: L-PHA binding to breast tumor tissue proteins, case 10406; scale not defined
[6] = target: proteins of human ductal invasive breast carcinoma tissue (cases 10406, 10119, 11827, 2417, 2207); assay: L-PHA binding to breast tumor tissue proteins, case 11827; scale not defined
[7] = target: T1, Glucose-regulated protein 78 immunoprecipitated from human ovarian cancer tissue (human, UniProt P11021 19-654); assay: GRP78 immunoprecipitated from ovarian cancer tissue, SDS-PAGE, lectin blot
T1 construct: also called GRP78
T1 sequence (P11021 19-654 limits assumed): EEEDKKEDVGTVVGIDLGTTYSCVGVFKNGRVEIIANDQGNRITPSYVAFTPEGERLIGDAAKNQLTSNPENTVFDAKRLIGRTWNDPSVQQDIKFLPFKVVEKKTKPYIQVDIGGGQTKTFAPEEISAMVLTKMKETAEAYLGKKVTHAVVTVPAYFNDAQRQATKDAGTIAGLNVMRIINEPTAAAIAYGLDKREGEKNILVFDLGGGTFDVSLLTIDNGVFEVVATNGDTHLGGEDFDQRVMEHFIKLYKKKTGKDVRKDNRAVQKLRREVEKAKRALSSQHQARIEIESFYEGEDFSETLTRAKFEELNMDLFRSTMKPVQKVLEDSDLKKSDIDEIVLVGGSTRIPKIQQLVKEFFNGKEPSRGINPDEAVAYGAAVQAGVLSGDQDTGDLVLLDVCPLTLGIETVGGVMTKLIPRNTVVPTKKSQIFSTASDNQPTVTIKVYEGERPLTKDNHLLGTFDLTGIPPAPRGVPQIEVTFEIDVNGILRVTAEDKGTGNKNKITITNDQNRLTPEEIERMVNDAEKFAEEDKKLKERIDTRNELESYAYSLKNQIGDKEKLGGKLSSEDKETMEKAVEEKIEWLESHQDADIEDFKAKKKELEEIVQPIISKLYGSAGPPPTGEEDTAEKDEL

[8] = target: T2, Thrombospondin 1 from serum and tissue of ovarian cancer patients (human, UniProt P07996 19-1170, limits assumed, core fucosylated N-linked glycans (inferred from AAL reactivity)); assay: biotinylated AAL precipitation from serum, Western blot with anti-THBS1 (FIG. 19B panel 2)
T2 construct: also called THBS1; AAL-reactive THBS1
T2 sequence (P07996 19-1170 limits assumed): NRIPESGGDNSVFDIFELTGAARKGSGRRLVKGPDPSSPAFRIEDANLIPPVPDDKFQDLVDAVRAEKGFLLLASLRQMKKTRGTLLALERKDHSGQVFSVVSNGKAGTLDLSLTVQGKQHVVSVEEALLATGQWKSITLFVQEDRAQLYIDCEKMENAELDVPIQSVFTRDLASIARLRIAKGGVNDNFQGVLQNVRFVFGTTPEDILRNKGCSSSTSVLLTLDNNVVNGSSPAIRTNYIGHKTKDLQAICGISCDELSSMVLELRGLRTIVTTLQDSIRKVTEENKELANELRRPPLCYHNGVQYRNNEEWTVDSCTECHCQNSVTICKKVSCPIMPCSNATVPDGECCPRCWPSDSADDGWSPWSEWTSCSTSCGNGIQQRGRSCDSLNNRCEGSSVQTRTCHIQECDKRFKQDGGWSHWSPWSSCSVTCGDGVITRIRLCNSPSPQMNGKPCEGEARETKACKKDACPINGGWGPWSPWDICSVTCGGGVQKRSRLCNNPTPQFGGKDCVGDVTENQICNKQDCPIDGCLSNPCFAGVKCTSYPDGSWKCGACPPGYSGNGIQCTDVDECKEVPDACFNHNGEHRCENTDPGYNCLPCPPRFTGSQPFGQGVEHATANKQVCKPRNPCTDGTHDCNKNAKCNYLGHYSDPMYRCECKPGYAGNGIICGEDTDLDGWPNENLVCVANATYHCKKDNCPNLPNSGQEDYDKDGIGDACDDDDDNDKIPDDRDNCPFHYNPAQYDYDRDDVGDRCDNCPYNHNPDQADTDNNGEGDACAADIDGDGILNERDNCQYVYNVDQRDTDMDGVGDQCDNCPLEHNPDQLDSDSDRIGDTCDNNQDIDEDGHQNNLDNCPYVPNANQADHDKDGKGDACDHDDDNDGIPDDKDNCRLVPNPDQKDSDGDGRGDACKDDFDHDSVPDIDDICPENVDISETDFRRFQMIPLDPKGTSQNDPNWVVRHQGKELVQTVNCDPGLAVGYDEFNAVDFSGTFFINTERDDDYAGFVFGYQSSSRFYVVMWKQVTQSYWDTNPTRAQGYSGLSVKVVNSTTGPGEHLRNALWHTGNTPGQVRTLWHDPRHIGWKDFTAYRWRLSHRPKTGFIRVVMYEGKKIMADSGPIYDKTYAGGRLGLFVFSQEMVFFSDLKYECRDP

[9] = target: glycoproteins from human endometrioid ovarian tumors (cases 711, 741, 471) nonadherent to Con A; assay: lectin blot of Con A-unbound glycoproteins, human case 471, biotinylated AAL, densitometry (FIG. 11B lane 4)

Molecule: Phaseolus vulgaris erythroagglutinin (erythroagglutinating phytohemagglutinin), biotinylated (from UniProt P05088 22-275)
- level of E-PHA binding for tumor relative to normal (x relative to normal) [1]: 0.2

Molecule: Phaseolus vulgaris leukoagglutinin (leukoagglutinating phytohemagglutinin), biotinylated (from UniProt P05087 21-272)
- L-PHA Level [2]: 9
- L-PHA Level [3]: 10
- L-PHA Level [4]: 4
- L-PHA Level [5]: 1
- L-PHA Level [6]: 4

B1: Phaseolus vulgaris erythroagglutinin (erythroagglutinating phytohemagglutinin), biotinylated (other, Phaseolus vulgaris (red kidney bean), UniProt P05088 22-275, looked up)
chain: ASQTSFSFQRFNETNLILQRDATVSSKGQLRLTNVNDNGEPTLSSLGRAFYSAPIQIWDNTTGAVAASPTSFTFNIDVPNNSGPADGLAFVLLPVGSQPKDKGGLLGLFNNYKYDSNAHTVAVEFDTLYNVHWDPKPRHIGIDVNSIKSIKTTTWDFVKGENAEVLITYDSSTKLLVASLVYPSLKTSFIVSDTVDLKSVLPEWVIVGFTATTGITKGNVETNDILSWSFASKLSDGTTSEALNLANFALNQIL
modifications: biotinylated
notes: also called E-PHA; EPHA
- binding result [7]: no binding

B2: Aleuria aurantia lectin, biotinylated (other, UniProt P18891 2-313, looked up)
chain: PTEFLYTSKIAAISWAATGGRQQRVYFQDLNGKIREAQRGGDNPWTGGSSQNVIGEAKLFSPLAAVTWKSAQGIQIRVYCVNKDNILSEFVYDGSKWITGQLGSVGVKVGSNSKLAALQWGGSESAPPNIRVYYQKSNGSGSSIHEYVWSGKWTAGASFGSTVPGTGIGATAIGPGRLRIYYQATDNKIREHCWDSNSWYVGGFSASASAGVSIAAISWGSTPNIRVYWQKGREELYEAAYGGSWNTPGQIKDASRPTPSLPDTFIAANSSGNIDISVFFQASGVSLQQWQWISGKGWSIGAVVPTGTPAGW
modifications: biotinylated
notes: Commercial fungal lectin; also called AAL
- binding result [7]: no binding
- binding result [8]: binds
- fold increase in the level of AAL binding relative to normal [9]: 7 fold
